Common to all, as to assay: cell-based or functional assay
Test [1] addresses RSV F glycoprotein of MARM v1302A/6 (strain A2 escape mutant, substitutions at aa 241/421) (respiratory syncytial virus strain A2), P03420.
Test [2] deals with RSV F glycoprotein of MARM v1302A/1 (strain A2 escape mutant, substitutions at aa 241/421) (respiratory syncytial virus strain A2), P03420.
For test [3], the target named is RSV F glycoprotein of MARM v1269 (strain A2 escape mutant, substitution at aa 389) (respiratory syncytial virus strain A2), P03420.
Test [4] concerns the target RSV F glycoprotein of MARM v1308F (strain A2 escape mutant, substitutions at aa 241/421) (respiratory syncytial virus strain A2), P03420.

B1: human monoclonal Fab RSVF2-5 (Fab, V domains shown)
VH: LEESGGDLVQPGRSLRLSCSTSGFSFGDYPVNWFRQAPGKGLEWLGIVRSRLYGGTLQYAASVEGRFTISRDDSKSIAYLHMNSLKSEDTAVYYCGVPVANIDYWGQGTLVTVSSASTKGPSS
VL: LTQPHSVSESLGKTVTISCTRAGGRIASNYVQWYQQRPGSSPTTVIYEDNQRPFGVPDRFSGSIDTSSNSASLTISGLKTEDEADYYCQSYDSENPWVFGGGTKLTVLG
For B1, the Dose for 60% plaque reduction was less than 0.3 µg/mL in test [1], 1.4 µg/mL in test [2], less than 0.3 µg/mL in test [3] and 1 µg/mL in test [4].

Source of the values: patent US20040005324A1.
